# Measured values reported in PMC6600523, “Interference with Amyloid-β Nucleation by Transient Ligand Interaction” (Molecules, 2019).
# Where a SMILES comes first, the peptide text is derived from it. [ ]: non-standard residue; d: D form. The star is where a group is joined. 5FAM = O=C1OC2(c3ccc(O)cc3Oc3cc(O)ccc32)c2ccc(C(=O)*)cc21
# Experiments:
# Aβ42 [1] = target: T1, Aβ42 (Homo sapiens, UniProt P05067); assay: ThT assay, fibrillation kinetics of Aβ42; type: biochemical; details: 50 mM NaCl pH 7.4, 20 °C, AmyloFit fit, triplicate
# T1 construct: purchased Bachem H-1368.1000
# T1 sequence (P05067 672-713 limits assumed): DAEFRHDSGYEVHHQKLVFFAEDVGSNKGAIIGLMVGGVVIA
# Description: ThT was added at a final concentration of 5 μM in all samples. The final volume of each sample was 200 μL. Samples were prepared on ice and were pipetted into a 96-well plate afterwards. The plate was sealed with a microplate sealing film. All measurements were conducted at 20 °C with a microplate reader (Infinite M200, Tecan, Männedorf, Switzerland). The fluorescence was recorded at an excitation wavelength (λex) of 445 nm and an emission wavelength (λem) of 485 nm every 30 min for 120 h. […] All samples were prepared in triplicate.
# The ThT data was then subjected to the online server AmyloFit with a customized sigmoidal Equation (1) to determine the lag time tlag , and the half completion time of the aggregation process t1/2 , according to previous studies. (1) It=k0t+A/1+exp−kt−t1/2, where k0 represents the slope of the baseline, A is the amplitude, k denotes the apparent elongation rate constant. The lag time tlag can be derived from the intercept between the time axis and the tangent with slope k from the midpoint of the fitted sigmoidal curve, which is given by the following Equation (2):(2) tlag=t1/2−2/k
# Aβ42 [2] = target: T1, Aβ42; assay: Sedimentation velocity AUC with fluorescence detection, Aβ42 and D3 mixtures; type: binding
# Description: All measurements were performed using an XL-A analytical ultracentrifuge (Beckman coulter, Brea, CA, USA). […] All samples were prepared in 20 mM sodium phosphate, 50 mM NaCl (pH 7.4) containing 0.0004% PEI (w/v). Samples were then loaded into 3-mm double-sector titanium cells (Nanolytics, Potsdam, Germany), with each sector containing a 100 μL sample. The detection system uses an excitation laser at 488 nm and an emission cut-off filter at 505 nm to collect fluorescence signals. The amplification factor was adjusted to the same value for all samples for comparability. […] Data was acquired at 20 nm radial resolution. After thorough thermal equilibration the centrifugation was carried out at 60,000 rpm (289,000× g) at 20 °C for 15 h. Carrier proteins, such as albumin and kappa casein, are usually recommended to minimize unspecific surface adsorption for fluorescence-based AUC [56]. All sedimentation profiles were subjected to the software package SEDFIT (version 15.01b) for data evaluation. The data was analyzed with the continuous distribution c(s) Lamm equation model to obtain the sedimentation coefficient distributions. Fitting parameters (Table S1) including the buffer density and viscosity were determined using Sednterp (version 20130813BETA). […] Final graphs were generated using GUSSI (version 1.2.1) and sedimentation coefficients were standardized to s-values in pure water at 20 °C (s20,w).
# [3] = Sedimentation velocity AUC with fluorescence detection, labeled peptide alone; type: physicochemical; details: AUC-FDS, 60,000 rpm, 20 °C, 15 h, c(s) model; 0.2 μM FITC-D3 in 20 mM sodium phosphate, 50 mM NaCl pH 7.4, 0.0004% PEI; 0.33 μM FITC-Aβ42 in 55 mM Tris, 50 mM NaCl pH 7.4, 0.01% Tw20
# Description: All measurements were performed using an XL-A analytical ultracentrifuge (Beckman coulter, Brea, CA, USA). […] All samples were prepared in 20 mM sodium phosphate, 50 mM NaCl (pH 7.4) containing 0.0004% PEI (w/v). Samples were then loaded into 3-mm double-sector titanium cells (Nanolytics, Potsdam, Germany), with each sector containing a 100 μL sample. The detection system uses an excitation laser at 488 nm and an emission cut-off filter at 505 nm to collect fluorescence signals. The amplification factor was adjusted to the same value for all samples for comparability. […] Data was acquired at 20 nm radial resolution. After thorough thermal equilibration the centrifugation was carried out at 60,000 rpm (289,000× g) at 20 °C for 15 h. Carrier proteins, such as albumin and kappa casein, are usually recommended to minimize unspecific surface adsorption for fluorescence-based AUC [56]. All sedimentation profiles were subjected to the software package SEDFIT (version 15.01b) for data evaluation. The data was analyzed with the continuous distribution c(s) Lamm equation model to obtain the sedimentation coefficient distributions. Fitting parameters (Table S1) including the buffer density and viscosity were determined using Sednterp (version 20130813BETA). […]
# [4] = 20 μM Aβ42 with (label D3, 10:1) or without (label Aβ42) 2 μM D3, 55 mM Tris-HCl
Compound,"Lag time tlag of fibrillation kinetics (Aβ42 [1]; 20 μM Aβ42 with (label D3) or without (label Aβ42) 2 μM D3, 20 mM sodium phosphate, 5 μM ThT) [h]","Lag time tlag of fibrillation kinetics, Tris-HCl buffer (Aβ42 [1]; [4]) [h]","Slope k of fibrillation kinetics, Tris-HCl buffer (Aβ42 [1]; [4])","s20,w of the main peak of FITC-D3 with Aβ42 (Aβ42 [2]; 0.2 μM FITC-D3 with 50-fold excess of Aβ42, 20 mM sodium phosphate, 50 mM NaCl pH 7.4, 0.0004% PEI, interpreted as 1:1 complex) [S]","Averaged s20,w of the new species between 1 and 2 S, FITC-D3 with Aβ42 (Aβ42 [2]; 0.2 μM FITC-D3 with Aβ42, c(s) analyses from five independent experiments, complexes with higher stoichiometries) [S]","Sedimentation coefficient s20,w of the labeled peptide alone [3] [S]"
"Aβ42: unlabeled amyloid-β peptide 42, Bachem product No. H-1368.1000 [reference compound]",17.3 ± 1.6,14.5 ± 1.4,0.13 ± 0.01,–,–,–
CC(C)C[C@@H](NC(=O)[C@@H](CCCNC(=N)N)NC(=O)[C@H](NC(=O)[C@@H](CCCNC(=N)N)NC(=O)[C@H]1CCCN1C(=O)[C@H](N)CCCNC(=N)N)[C@H](C)O)C(=O)N[C@H](Cc1c[nH]cn1)C(=O)N[C@@H](C(=O)N[C@H](Cc1c[nH]cn1)C(=O)N[C@H](CCCNC(=N)N)C(=O)N[C@H](CC(N)=O)C(=O)N[C@H](CCCNC(=N)N)C(=O)N[C@@H](CCCCNC(=O)c1ccc2c(c1)C(=O)OC21c2ccc(O)cc2Oc2cc(O)ccc21)C(N)=O)[C@H](C)O [FITC-D3] (H-[dR][dP][dR][dT][dR][dL][dH][dT][dH][dR][dN][dR]K(5FAM)-NH2; N-terminus and C-terminus assumed),–,–,–,0.71 ± 0.04,1.45 ± 0.08,0.54 ± 0.02
